As usually defined, the Kd is the equilibrium constant for the complex coming apart.

This note sets out measurements from US20240101708A1 (Genentech, published 2024).

The assay concerns the target T1, recombinant human RNF43 extracellular domain (human, UniProt Q68DV7 24-197).
T1 construct: extracellular domain; also called huRNF43; human RNF43 ECD
T1 sequence (looked up): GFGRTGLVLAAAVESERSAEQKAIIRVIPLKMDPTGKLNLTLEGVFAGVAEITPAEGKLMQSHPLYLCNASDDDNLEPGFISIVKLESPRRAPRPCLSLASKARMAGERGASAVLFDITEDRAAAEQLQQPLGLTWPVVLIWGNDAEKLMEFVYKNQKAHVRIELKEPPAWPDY
As to the kind of experiment: SPR Biacore 8K; antibody captured on Protein A; RNF43 ECD analyte; 25 C. As to the method: Antibodies were screened for binding to recombinant human RNF43 and ZNRF3 ECDs using a Biacore® 8 k instrument (GE Life Sciences). Briefly, antibodies diluted to 1 μg/ml in 1×HBSP buffer (Cytiva, BR100368) were captured on a Sensor Chip Protein A (GE Life Sciences) using a flow rate of 10 μl/minute and a contact time of 60 seconds. Binding of recombinant human RNF43 and ZNRF3 extracellular domain to the captured antibodies was analyzed at 25° C. using a single cycle kinetics method with a flow rate of 30 μl/minute, a contact time of 180 seconds and a dissociation time of 600 seconds. The concentration of recombinant human RNF43 and ZNRF3 extracellular domain in the single cycle kinetics were 0, 0.8, 4, 20, and 100 nM. Between cycles, the chip was regenerated using 10 mM Glycine HCl pH 1.5 injected for 30 seconds at 30 μl/minute. Data were evaluated using Biacore 8K Evaluation software (GE Life Sciences). Kinetic constants were obtained using a 1:1 binding model with the parameter RI set to zero. Cell surface ligase antibodies with sub-nanomolar affinities may provide advantages in certain instances, for example, in the degradation efficiency which is correlated with the durability of the ternary complex as shown in FIG. 5D.

Several values for one entry are separate records, joined by “and”; a condition that tells them apart may be missing. Identical values can stand only once.

B1: RNF43-177 (antibody, V domains shown)
VH: QVKLLQSGAALVKPGDSAKMSCKASGYTFTDSIIHWVKQSHGKSLEWIGYINPYSGGIQYNEKFKNKATLTVDKSSSTAYVEFSRLTSEDSAIYYCAREIRGMDAWGQGTSVTVSS
VL: DIVLTQSPATLSVTPGESVSLSCRASQGISTSLHWYQQKSTESPRLLIKYASQSVSGIPSRFSGSGSGTDFTLSINRVESEDFSVYYCQQSYNLPRTFGPGTKLELK
notes: Rat clone; VH/VL only
For B1, the Kd was 6470 pM.

B2: RNF43-31 (antibody, V domains shown)
VH: AVQLVESGGGSVQPGRSMRLSCAASGFTFSNYDMTWVRQAPTKGLEWVASITYDGGSTYSRDSVKGRFTISRDNAKSTLYLQMDSLRSEDTATYYCTTDRGRYLPYYFDYWGQGVMVTVSA
VL: DVVLTQTPVSLSVTLGDQASISCRSSQSLEYSDGYSYLEWYLQKPGQSPQLLIYEVSSRFSGVPDRFIGSGSGTDFTLKISRVEPEDLGVYYCFQAIHDPTFGAGTKLELK
notes: Rat clone; VH/VL only
Consider B2, for which the Kd is 130 pM.

B3: RNF43-41 (antibody, V domains shown)
VH: EVHLVESGGGLVQPGRSVKLSCTASGFTFSYYDMAWVRQAPTKGLEWVASLTYDGSSTYYRDSVKGRFTISRDNAKSTLYLQMDSLRSEDTATYYCTTDRGRYLPYHFDYWGQGVMVTVSS
VL: DVVLTQTPVSLSVTLGDQASISCRSSQSLEYSDGYTYLEWYLQKPGQSPQLLIYEVSTRFSGVPDRFIGSGSGTDFTLKISRVEPEDLGVYYCFQATHDPTFGAGTKLELK
notes: Rat clone; VH/VL only
As for B3, the dissociation constant (Kd) came to 370 pM.

B4: RNF43-67 (antibody, V domains shown)
VH: AVQLVESGGGSVQPGRSMRLSCAASGFTFSNYDMTWVRQAPTKGLEWVASITSDGGSTYSRDSVKGRFTISRDNAKSTLYLQMDSLRSEDTATYYCTTDRGRYLPYYFDYWGQGVMVTVSA
VL: DVVLTQTPVSLSVTVGDQASISCRSSQSLEYSDGYSYLEWYLQKPGQSPQLLIYEVSSRFSGVPDRFIGSGSGTDFTLKISRVEPEDLGVYYCFQAIHDPTFGAGTKLELK
notes: Rat clone; VH/VL only
As to B4, the Kd is 590 pM.

B5: RNF43-80 (antibody, V domains shown)
VH: EVQLVESGGGLVQPGRSLKVSCLASGFNFGDFGMNWIRQAPGKGLEWVSYISSTSGTIYYADTVKGRFTISRDNAKNTLYLQLSSLRSEDTALYYCARPAGRYFDYWGQGVLVTVSS
VL: DIVMTQSPSSLAVSAGETVTIDCKSNQSLLYSGNQKNYLAWYQQKPGQSPKLLIYWTSTRQSGVPDRFIGSGSGTEFTLTISSVQAEDLAIYYCQQYYHTPFTFGSGTKLEIK
notes: Rat clone; VH/VL only
Regarding B5, the Kd came out at 480 pM.

B6: RNF43-61 (antibody, V domains shown)
VH: EVQLVESGGDLVQPGRSLTLSCAASGFIFSDYYMAWVRQAPKKGLEWVASITYEGSSTYYGDSVKGRFTISRDNTKSTLYLLMNSLRSDDSATYYCARHGAHYTYNYAYYFDYWGQGVMVTVSS
VL: DIMLTQSPTTLSVIPGENISLSCRASQSVGTNLHWYQQKPSESPRVLINYASQSISGIPSRFSGSGSGTDFTLNINRVEPEDSSVYYCQQSKSWPFTFGSGTKLEIK
notes: Rat clone; VH/VL only
For the molecule B6, the equilibrium dissociation constant (Kd) was found to be 430 pM.

B7: RNF43-74 (antibody, V domains shown)
VH: EVQLVESGGDLVQPGRSLTLSCAASGFTFSDYYMAWVRQAPKKGLEWVASITYEGSSTYYGDSVKGRFTISRDNTKSTLYLLMNSLRSDDTATYYCARHGAHYTYNYAYYFDYWGQGVMVTVSS
VL: DIMLTQSPTTLSVIPGENISLSCRASQSVGTNLHWYQQKPSESPRVLINYASQSISGIPSRFSGSGSGTDFTLNINRVEPEDSSVYYCQQSKSWPFTFGSGTKLEIK
notes: Rat clone; VH/VL only
On to B7, for which the Kd is 350 pM.

B8: RNF43-71 (antibody, V domains shown)
VH: QVKLLQSGAALVKPGDSVKMSCKASGYTFTDHIIHWVKQSHGKSLEWIGYINPYSGSTNYNEKFKSKATLTVDRSNNTAYMEFSRLTSEDSAIYYCARKNYGGYGVMDAWGQGASVTVSS
VL: DIQMTQSPSLLSASVGDRVTLSCKASQNIYKNLAWHQQKLGEAPKLLIYYANSLQTGIPSRFSGSGFGTDYTLTISSLQPEDVATYFCQQSSSGWTFGGGTKLELK
notes: Rat clone; VH/VL only
Consider B8, for which the equilibrium dissociation constant (Kd) is 30 pM.

B9: RNF43-181 (antibody, V domains shown)
VH: QIQLQQSGAELVKPGSSVKISCKSSAYRFTSNFIHWIRQQPGNGLEWIGWIYPGDGDAENNQKFNGKVILTADKSSSTAYMQLSSLTSEDSAVYFCARGVMTSLWYFDFWGPGTMVTVSS
VL: DVQMTQSPYNLAASPGESVSINCKASKSISKYLAWYQQKPGKTNKLLIYDGSTLQSGIPSRFSGSGSGTDFTLTIRSLEPEDFGLYYCQQHHEQPPTFGSGTKLEIK
notes: Rat clone; VH/VL only
B9: the dissociation constant (Kd) stood at 85.9 pM.

B10: RNF43-86 (antibody, V domains shown)
VH: EVQLVESGGGLVQPGRSLKLSCAASGFTFTNYYMAWVRQAPTKGLEWVASISPSGDTTYYPDSVKGRFTVSRDNAKSTQYLQMDNLRSEDTATYYCARDAYTYYGYKGWYFDFWGPGTMVTVSS
VL: QFVLTQPNSVSTNLGSAVKLSCKRSTDDIGSNYVNWYQQHEGRSPTTMIYRDDKRPDGVPDRFSGSIDRSSNSALLTINNVQTEDEADYFCQSYSSGIYIFGGGTKLTVL
notes: Rat clone; VH/VL only
Regarding B10, the Kd turned out to be 17300 pM.

B11: RNF43-53 (antibody, V domains shown)
VH: EVQLVESGGGLVQPGRSLKLSCGASGFSFSTYYMVWVRQAPTKGLEWVASISPNGGNTYYPDSVKGRFTISRDNAKSTQYLQMDSLRSEDTATYYCATDGSYYYDGYRWLAYWGQGTLVTVSS
VL: QFVLTQPNSVSTNLGSTVKLSCKRSTGNIGSNYVSWYQQHEGRSPTTLIYRDDKRPDGVPDRFSGSIDRSSNSALLTINNVQTEDEAGYFCQSFSSGLFIFGGGTKLTVL
notes: Rat clone; VH/VL only
As for B11, the Kd was found to be 3300 pM.

B12: RNF43-38 (antibody, V domains shown)
VH: EVQLVESGGGLVQPGTSLKISCVASGFTFSDYWMSWVRQTPGKTMEWIGDIKSDGSYTNYAPSLKNRFTISRDNAKSTLYLQMNNVRSEDTATYYCTRDAYRYNYVHYGLDAWGQGASVTVSS
VL: QFVLTQPNSVSANLGSTVKLSCNRSTGNIGSNYVSWYQQHEGRSPTTMLYRDGKRPDGIPDRFSGSIDGSSNSALLTINNVQTEDEADYFCQSYSSGIKYIFGGGTKLTVL
notes: Rat clone; VH/VL only
With B12, the dissociation constant (Kd) was 4930 pM and 8660 pM.

B13: RNF43-56 (antibody, V domains shown)
VH: EVQLVESGGGLVQPGTSLKISCVASGFTFSDYWMSWVRQTPGRTMEWIGDIKYDGSYTNYAPSLKNRFTISRDNAKSILYLQMNNVRSEDTATYYCTRDAYGYNYVHYGLDAWGQGASVTVSS
VL: QFVLTQPNSVSSNLGSTVKLSCNRSTGNIGSNYVSWYQQHEGRSPTTMIYRDDKRPDGIPDRFSGSIDGSSNSALLTINNVQTEDEADYFCQSYSSDIKYIFGGGTKLTVL
notes: Rat clone; VH/VL only
As to B13, the Kd turned out to be 1840 pM.

B14: RNF43-136 (antibody, V domains shown)
VH: QVQLQQSGAELVKPGSSVKISCKASGYTFTSKFMHWIKQQPGSGLEWIGWIYPEHGNTKYNQKFDGKATLTADKSSSTAYMQLSSLTSGDSAVYFCARQSSQGAYAMDAWGQGTSVTVSS
VL: DIQMTQSPVSLSASLGQTVSIECLTSEGIPIDLAWYQQKSGKSPQLLIYAASRSQDGVPSRFSGSGSGTRYSLKISGMQPEDEADYFCQQTYKYPFTFGSGTRLEIK
notes: Rat clone; VH/VL only
On to B14, for which the dissociation constant Kd came to 1910 pM.

B15: RNF43-196 (antibody, V domains shown)
VH: QVQLQQSGAELVKPGSSVKISCKASGFTFTSNFMHWIKQQPGNGLEWIGWIYPGDGDTDYNQKFNGKATLTADKSSSTAYMELSSLTSEDSAVYFCARAYYGSYWYFDFWGPGTKVTVSS
VL: DVQMTQSPHNLAASPGESVSINCKASKSISKYLAWYQQKPGKVKKLLIYGGSTLQSGIPSRFSGSGSGTDFTLTISSLEPEDFGLYYCQQHNEYPPTFGGGTRLELQ
notes: Rat clone; VH/VL only
Consider B15, for which the dissociation constant Kd was determined as 114 pM.

B16: RNF43-104 (antibody, V domains shown)
VH: QVQLKESGPGLVQPSQTLSLTCSVSGFSLTSFHVHWVRQPPGKGLEWMGLMWSNGDTSYNSDLKSRLSISRDTSKSQVFLKMHSLQTEDTATYYCARTDVYHGFGAMDAWGQGTSVTVSS
VL: DIQMTQSPSFLSASLGNSITITCHASQFIKGWLAWYQQKSGNAPELLIYKSSSLHSGVPSRFSGSGSGTDYILTISNLQPEDIATYYCQHYQGFPLTFGSGTKLEIK
notes: Rat clone; VH/VL only
Turning to B16, the equilibrium dissociation constant (Kd) is 9120 pM.

B17: RNF43-116 (antibody, V domains shown)
VH: QVQLQQSGAELAKPGSSVKISCKASGYTFTSYYISWIKQTTGQDLEYIGYVNTRSGGTNYNEKFKVKATLTVDNSSSTAFMQLSSLTPDDSAVYYCARGRTDWGQGTLVTVSS
VL: DIQMTQSPSLLSASVGDRVTVNCKASQNIYKNLEWYQQKHGEAPKLLIYYTNNLQTGISSRFSGSGSGTDYTLTISSLQPEDVATYYCFQYNSGYTFGAGTKLELK
notes: Rat clone; VH/VL only
Regarding B17, the Kd stood at 1420 pM.

B18: RNF43-145 (antibody, V domains shown)
VH: EVQLKESGPGLVQPSQTLSLTCTVSGFSLTDYSVYWVRQPPGKGLEWMGVMWSGGTTAYNSALKSRLSISRDTSKSQVFLKMNSLQTEDTAIYYCTRGGKYDGTYYYGWYFDFWGPGTMVTVSS
VL: DVVLTQSPATLSVTPGERISLSCRASESVDTYLYWYQQKPNESPRLLIKYASQSISGIPSRFSGSGSGTDFTLSINGVELEDLSIYYCQQGNSLPLTFGSGTKLEIK
notes: Rat clone; VH/VL only
In the case of B18, the dissociation constant (Kd) amounted to 504 pM.

B19: RNF43-130 (antibody, V domains shown)
VH: QVQLVQSGAEVVKPGSSVKISCKASGYTFTGNFIHWIKQQPGNGLEWIGWIYPGDGDTTYNQKFSGKATLTADKSSSTAYMQLSNLTSEDSAVYFCAKWRDLSSDWFAYWGQGTLVTVSS
VL: DIVMTQSPVSLTVSEGEMVTINCKSSQSLLSSGNQKNYLAWYQQKPGQSPRLLIYFTSTRQSGVPDRFIGSGSGTDFTLTISDVQAEDLADYYCLQHYSYPNTFGAGTKLELK
notes: Rat clone; VH/VL only
For the molecule B19, the Kd was found to be 134 pM.
